What all share (conditions): protein: recombinant; tags: N-terminal 6His-6Lys tag, TEV site; label: biotin (internal dT, streptavidin chip); dumbbell of two hairpins with T7 loops, nick between the 5' and 3' ends; stems 13 and 12 bp
The target in data set [1] is T1, PARP-1 full-length (human, UniProt P09874 2-1014). The data set is described as follows: SPR; no inhibitor; SPR (Biacore 8K): 20 mM HEPES, 150 mM NaCl, 1 mM TCEP, 0.05% Tween-20, 1% (v/v) (component not given), pH not stated, 25 C; PARP-1 0.078-20 nM; n = 6. In general terms: In SPR one partner is held on a chip, and binding of the other changes the refractive index at the surface.
T1 sequence (P09874 2-1014): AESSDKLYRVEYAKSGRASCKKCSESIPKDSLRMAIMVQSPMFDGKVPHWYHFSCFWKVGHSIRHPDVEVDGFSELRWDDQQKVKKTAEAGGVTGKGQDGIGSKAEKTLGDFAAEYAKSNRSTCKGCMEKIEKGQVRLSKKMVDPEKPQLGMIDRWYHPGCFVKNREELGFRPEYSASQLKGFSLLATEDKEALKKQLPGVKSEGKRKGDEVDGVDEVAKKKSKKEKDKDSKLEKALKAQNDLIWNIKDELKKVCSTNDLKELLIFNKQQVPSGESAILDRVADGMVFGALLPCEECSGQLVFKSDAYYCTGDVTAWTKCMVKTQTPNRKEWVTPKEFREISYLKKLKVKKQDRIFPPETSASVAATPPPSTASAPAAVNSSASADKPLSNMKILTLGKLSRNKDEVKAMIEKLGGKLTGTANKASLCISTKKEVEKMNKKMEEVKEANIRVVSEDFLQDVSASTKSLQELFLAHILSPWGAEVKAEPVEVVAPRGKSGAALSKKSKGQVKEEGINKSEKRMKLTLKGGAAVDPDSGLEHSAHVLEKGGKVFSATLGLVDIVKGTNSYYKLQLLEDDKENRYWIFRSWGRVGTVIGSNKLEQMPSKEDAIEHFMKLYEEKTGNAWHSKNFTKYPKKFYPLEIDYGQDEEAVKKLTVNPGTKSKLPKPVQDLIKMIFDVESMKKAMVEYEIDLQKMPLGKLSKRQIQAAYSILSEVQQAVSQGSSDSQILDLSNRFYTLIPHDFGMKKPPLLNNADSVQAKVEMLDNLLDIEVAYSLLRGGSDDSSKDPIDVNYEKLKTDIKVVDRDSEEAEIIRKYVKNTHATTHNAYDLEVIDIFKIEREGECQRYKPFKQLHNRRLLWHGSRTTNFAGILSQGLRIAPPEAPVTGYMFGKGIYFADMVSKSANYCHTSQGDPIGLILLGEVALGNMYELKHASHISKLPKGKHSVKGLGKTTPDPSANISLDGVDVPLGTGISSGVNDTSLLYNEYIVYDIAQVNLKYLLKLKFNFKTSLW

The target in data set [2] is T1, PARP-1 full-length. The data set is described as follows: SPR; EB-47 (100 mM [sic]); SPR (Biacore 8K): 20 mM HEPES, 150 mM NaCl, 1 mM TCEP, 0.05% Tween-20, 1% (v/v) (component not given), pH not stated, 25 C; PARP-1 0.078-20 nM; n = 6.
For data set [3], the target named is T1, PARP-1 full-length. The data set can be described thus: SPR; olaparib (10 mM [sic]); SPR (Biacore 8K): 20 mM HEPES, 150 mM NaCl, 1 mM TCEP, 0.05% Tween-20, 1% (v/v) (component not given), pH not stated, 25 C; PARP-1 0.078-20 nM; n = 6.
Data set [4] deals with T1, PARP-1 full-length. The data set can be described thus: SPR; veliparib (10 mM [sic]); SPR (Biacore 8K): 20 mM HEPES, 150 mM NaCl, 1 mM TCEP, 0.05% Tween-20, 1% (v/v) (component not given), pH not stated, 25 C; PARP-1 0.078-20 nM; n = 6.

B1: biotinylated hairpin DNA (dumbbell single-strand break model) (structured_DNA)
DNA: GACAACCCGGCGCTTTTTTTGCGCCGGGTTGTCTGGCCCAGTTCGTTTTTTTCGAACTGGGCCA
modifications: biotin-dT at position 17 (written as T; between S1 and S2)
Turning to B1, the dissociation constant Kd (as a rule, the concentration at which binding is half-saturated) was found to be 2.1 nM with PARP-1 full-length [1], 0.13 nM in the data set with PARP-1 full-length [2], 2.1 nM with PARP-1 full-length [3] and 4.2 nM with PARP-1 full-length [4].
